Assay results reported in patent US20230174644A1.

Biological target: Recombinant nucleolin fused with a polyhistidine (His)6 tag, made in Pichia GS115 (human) (UniProt P19338)
Assay: SPR (BIAcore 2000), ES amine-coupled on a CM5 chip, NL 62.5-500 nM in flow, 25° C., 1:1 Langmuir model

UniProt P19338, sequence (P19338 other isoform, or with tags, fused parts or gaps limits assumed): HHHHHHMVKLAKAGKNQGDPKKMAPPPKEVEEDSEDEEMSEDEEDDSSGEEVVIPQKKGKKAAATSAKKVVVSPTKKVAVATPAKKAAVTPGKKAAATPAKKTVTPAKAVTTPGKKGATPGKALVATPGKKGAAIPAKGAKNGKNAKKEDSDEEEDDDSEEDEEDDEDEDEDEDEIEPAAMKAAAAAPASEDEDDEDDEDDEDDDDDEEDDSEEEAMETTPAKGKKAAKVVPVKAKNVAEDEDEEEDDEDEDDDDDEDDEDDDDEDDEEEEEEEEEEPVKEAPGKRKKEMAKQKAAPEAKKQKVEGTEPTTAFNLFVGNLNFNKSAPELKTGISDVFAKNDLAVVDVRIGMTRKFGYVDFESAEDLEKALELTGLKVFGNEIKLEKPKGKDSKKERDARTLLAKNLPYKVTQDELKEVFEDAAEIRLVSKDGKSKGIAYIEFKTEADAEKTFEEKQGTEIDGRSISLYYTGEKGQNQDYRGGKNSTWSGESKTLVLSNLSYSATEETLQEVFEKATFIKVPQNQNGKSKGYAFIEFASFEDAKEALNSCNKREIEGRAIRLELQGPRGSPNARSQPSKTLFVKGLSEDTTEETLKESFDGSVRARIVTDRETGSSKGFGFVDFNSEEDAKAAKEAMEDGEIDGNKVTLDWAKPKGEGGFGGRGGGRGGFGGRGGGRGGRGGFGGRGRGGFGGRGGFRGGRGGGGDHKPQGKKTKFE

Kd: 23.2 nM
Substance: Endostatin (recombinant, with N-terminal His-tag) (from UniProt P39060 1572-1754) (ligand)
